Tests used:
Assay in all cases: cryo-EM structure
RPB1 = RPB1 (human (endogenous in HeLa), UniProt P24928 1-1970)
TBP = TBP (human, UniProt P20226 1-339)
RPB2 = RPB2 (human (endogenous in HeLa), UniProt P30876 1-1174)

TBP, sequence (P20226 whole entry): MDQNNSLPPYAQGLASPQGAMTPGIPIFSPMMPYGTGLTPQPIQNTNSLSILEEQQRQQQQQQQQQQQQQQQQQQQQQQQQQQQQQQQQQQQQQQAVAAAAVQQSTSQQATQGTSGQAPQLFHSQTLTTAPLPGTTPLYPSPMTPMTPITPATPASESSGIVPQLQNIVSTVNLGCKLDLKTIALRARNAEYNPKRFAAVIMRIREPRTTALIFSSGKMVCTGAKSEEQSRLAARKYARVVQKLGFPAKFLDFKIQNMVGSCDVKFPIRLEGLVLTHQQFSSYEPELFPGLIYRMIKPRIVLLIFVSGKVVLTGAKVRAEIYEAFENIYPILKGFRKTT

Row | binding result (RPB1) | binding result (TBP) | binding result (RPB2) | Binder
1 | binds |  |  | TFIIEα (natural protein) MADPDVLTEVPAALKRLAKYVIRGFYGIEHALALDILIRNSCVKEEDMLELLKFDRKQLRSVLNNLKGDKFIKCRMRVETAADGKTTRHNYYFINYRTLVNVVKYKLDHMRRRIETDERDSTNRASFKCPVCSSTFTDLEANQLFDPMTGTFRCTFCHTEVEEDESAMPKKDARTLLARFNEQIEPIYALLRETEDVNLAYEILEPEPTEIPALKQSKDHAATTAGAASLAGGHHREAWATKGPSYEDLYTQNVVINMDDQEDLHRASLEGKSAKERPIWLRESTVQGAYGSEDMKEGGIDMDAFQEREEGHAGPDDNEEVMRALLIHEKKTSSAMAGSVGAAAPVTAANGSDSESETSESDDDSPPRPAAVAVHKREEDEEEDDEFEEVADDPIVMVAGRPFSYSEVSQRPELVAQMTPEEKEAYIAMGQRMFEDLFE
2 |  | binds | binds | RAP30 (natural protein, human) MAERGELDLTGAKQNTGVWLVKVPKYLSQQWAKASGRGEVGKLRIAKTQGRTEVSFTLNEDLANIHDIGGKPASVSAPREHPFVLQSVGGQTLTVFTESSSDKLSLEGIVVQRAECRPAASENYMRLKRLQIEESSKPVRLSQQLDKVVTTNYKPVANHQYNIEYERKKKEDGKRARADKQHVLDMLFSAFEKHQYYNLKDLVDITKQPVVYLKEILKEIGVQNVKGIHKNTWELKPEYRHYQGEEKSD

Source: paper PMC4940141 (Nature, 2016)
